Experimental data from US20240092907A1 (Five Prime, published 2024).
Substitutions are numbered along the chain they refer to.

T1: recombinant hVISTA ECD multimer (monobiotinylated hVISTA ECD on PE-streptavidin dextramers) (human, UniProt Q9H7M9 33-194, limits assumed, monobiotinylated)
T1 construct: Loaded at a 28:1 molar ratio onto PE-conjugated streptavidin dextramers; also called VISTA multimer; hVISTA-loaded dextramers
T1 sequence (looked up): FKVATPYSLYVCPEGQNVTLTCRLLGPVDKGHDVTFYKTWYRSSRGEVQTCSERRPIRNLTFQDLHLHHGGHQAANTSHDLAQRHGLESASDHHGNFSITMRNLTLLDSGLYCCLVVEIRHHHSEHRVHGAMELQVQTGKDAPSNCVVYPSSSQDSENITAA

B1: P1-061029.IgG1.3 (antibody)
heavy: EVQLVESGGGLVQPGKSLRLSCAASGFTLDDYAMHWVRQAPGKGLEWVSGINWNSANIGYADSVKGRFTISRDNAKNSLYLQMNSLRTEDTALYYCAKVPGYSGGWIDAFDVWGQGTMVTVSSASTKGPSVFPLAPSSKSTSGGTAALGCLVKDYFPEPVTVSWNSGALTSGVHTFPAVLQSSGLYSLSSVVTVPSSSLGTQTYICNVNHKPSNTKVDKRVEPKSCDKTHTCPPCPAPEAEGAPSVFLFPPKPKDTLMISRTPEVTCVVVDVSHEDPEVKFNWYVDGVEVHNAKTKPREEQYNSTYRVVSVLTVLHQDWLNGKEYKCKVSNKALPAPIEKTISKAKGQPREPQVYTLPPSREEMTKNQVSLTCLVKGFYPSDIAVEWESNGQPENNYKTTPPVLDSDGSFFLYSKLTVDKSRWQQGNVFSCSVMHEALHNHYTQKSLSLSPG
light: not shown
notes: IgG1.3; also called parent; hIgG1.3f
B2: P1-068761.IgG1.3 (antibody)
heavy: B1 heavy with D30E, Y32E, A56E, N57E, G104H, F110E
light: not shown
notes: IgG1.3; also called hIgG1.3f
B3: P1-068767.IgG1.3 (antibody, V domains shown)
VH: EVQLVESGGGLVQPGKSLRLSCAASGFTLEDYAMHWVRQAPGKGLEWVSGIDWNSENIGYADSVKGRFTISRDNAKNSLYLQMNSLRTEDTALYYCAKVPGYSGGWIDAEDDWGQGTMVTVSS
VL: not shown
notes: IgG1.3; also called hIgG1.3f; printed once as P1-068768

Legend:
[1] = target: T1, recombinant hVISTA ECD multimer …; experiment: flow cytometry, blocking of VISTA multimer binding to activated human CD4+ T cells, pH 6.0
Procedure: As a control, activated CD4+ T cells were stained with PE-conjugated streptavidin dextramers that were not loaded with hVISTA. The stained cells were washed with HBSS+ MES and acquired on a flow cytometer. Data were analyzed using FlowJo™ software (BD Biosciences). […] Left, from darker gray to lighter, the filled histograms depict binding at pH 7.0, 6.5, 6.4, 6.3, 6.1, and 6.0. Some histograms are labeled with their corresponding pH. Non-VISTA control multimer binding at pH 6.0 is shown as the unfilled histogram. Right, graphed PE mean fluorescence intensities (MFI) of CD4+ T cells stained with hVISTA-loaded dextramers (blue circles) or with non-loaded dextramers (triangles) at various pH.
This blocking assay was performed as described in Example 4.

[2] = target: avidin (ThermoFisher Scientific catalog #21128) (UniProt P02701 25-152); experiment: SPR 25C, Ab on Protein A, pH 6.0 and 7.4
Procedure: (§1) Protein A (ThermoFisher Scientific catalog #21181) was diluted to 20 ug/ml in 10 mM sodium acetate pH 4.5 and immobilized onto flow cells of a CM3 biosensor following the manufacturer's amine coupling protocol (GE Healthcare), targeting 800 RU immobilization density of Protein A per flow cell. SPR experiments were conducted at 25° C. using PBST (137 mM sodium chloride, 2.7 mM potassium chloride, 10 mM phosphate buffer, 0.05% Tween 20) running buffer at pH 7.4 and 6.0. Antibodies (formatted as IgG1.3 antibodies) were diluted to 50 nM in PBST pH 7.4, and were captured across active biosensor flow cells at 5 ul/min for 60 seconds. […] Two 15 second injections of 10 mM glycine pH 1.5 were used to regenerate the Protein A capture surface between assay cycles. Reference flow cell and 0 nM blank-subtracted sensorgrams were inspected using Biacore® T200 Evaluation Software v.2.0.

[3] = target: BSA (Calbiochem catalog #126593) (UniProt P02769 25-607); experiment: SPR 25C, Ab on Protein A, pH 6.0 and 7.4
Procedure: as §1

BSA (Calbiochem catalog #126593), sequence (P02769 25-607 limits assumed): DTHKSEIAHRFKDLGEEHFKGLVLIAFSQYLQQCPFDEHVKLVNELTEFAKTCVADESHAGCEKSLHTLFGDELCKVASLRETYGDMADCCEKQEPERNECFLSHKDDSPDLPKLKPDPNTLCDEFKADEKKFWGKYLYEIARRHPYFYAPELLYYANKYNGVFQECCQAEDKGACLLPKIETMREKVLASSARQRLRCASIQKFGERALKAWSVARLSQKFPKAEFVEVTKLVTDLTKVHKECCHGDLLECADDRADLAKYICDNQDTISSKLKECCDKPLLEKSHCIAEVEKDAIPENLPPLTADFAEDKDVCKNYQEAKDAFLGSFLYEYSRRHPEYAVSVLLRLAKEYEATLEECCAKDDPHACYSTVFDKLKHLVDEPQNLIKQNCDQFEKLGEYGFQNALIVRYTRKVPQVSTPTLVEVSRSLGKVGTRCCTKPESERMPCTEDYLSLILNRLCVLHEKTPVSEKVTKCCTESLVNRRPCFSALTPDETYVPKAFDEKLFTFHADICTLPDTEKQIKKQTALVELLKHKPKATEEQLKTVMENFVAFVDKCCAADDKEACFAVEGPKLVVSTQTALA
avidin (ThermoFisher Scientific catalog #21128), sequence (P02701 25-152 limits assumed): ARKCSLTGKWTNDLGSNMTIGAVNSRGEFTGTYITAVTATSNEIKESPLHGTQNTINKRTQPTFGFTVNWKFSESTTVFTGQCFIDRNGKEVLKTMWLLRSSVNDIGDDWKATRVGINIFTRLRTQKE

Binder | IC50 (read off the curve) [1] | binding result [2] | binding result [3]
B1 | ~0.04 µg/mL | no binding (tested: 100-10 nM; binding defined as >10 RU) | no binding (tested: 100-10 nM; binding defined as >10 RU)
B2 | – | no binding (tested: 100-10 nM; binding defined as >10 RU) | no binding (tested: 100-10 nM; binding defined as >10 RU)
B3 | – | no binding (tested: 100-10 nM; binding defined as >10 RU) | no binding (tested: 100-10 nM; binding defined as >10 RU)
